Measured values as given in the DeepSol protein solubility set.

Assay: soluble on expression in E. coli; label from the status in PepcDB or PDB records

Row | Sequence | soluble on expression in E. coli
1 | MGSDKIHHHHHHMNKTMWSIGFQKHLPINEEASLFRFETAVPQPEGRDLLVKVDAVSVNPIDVAVRKNGTETLDEPKVIGWDAVGTVIAKGASAGYFEIGDRVFYAGSFKRAGSDSEYQLVDERVVGHAPEKLSNAEAAAMPLTSLTAWEALFEQLEIDREDVQGNADKSILIINGAGGVGSIATQLAQKAGLHVIASASRPETIEWCLKHGADETVNHRNNLIDEVRNLGHQYVDYILELNNIDAHWDEMVELIKPNGRMTSITQNHEPVDLKALKHKRVTFAWEWMYTKSYYETPDMETQHVYLDEIARLLDAGELISTLTKQLSPINVENLKQAHKLVEGNHMMGKVVVENLED | not soluble
2 | MSSFVLDFQEIEKTQLSLVGGKGLNLGALSNMQGIQVPEGFCVTTAGYEKAIEQNEELQALLQQLTKLKREERVRIGEISKKIRENIMAVQIPSDVVEAVAHYLSRFGNEHAYAVRSSATAEDLPYASFAGQQDTYLNIIGENAILQHVRKCWASLFTDRAVMYRMQNGFEHNQVSICVVVQKMVFPQASGILFTADPITSNRKVLSIDASFGLGEALVSGLVSADNYKVKEGEIIDKMIATKKLAIYALKEGGTETKQNDPVQQKIQTLSDQQILQLVQIGRQIEAYFGCPQDIEWCLVDHTFYIVQSRPITTLYPIPEENDEGNHVYISVGHQQMMTDAMKPLGLSFFLLTTNAPMRKAGGRLFVDATQQLVLPASRDYLINTLGKSDPLVRDALTTIIERDDFITLLPDEEKEKSASKSKPPVSSQPEIENDPAIVTELIRNSEASLEELKQNMQLKSGVDVFDFILEDIQQLKKVLFNPQSIAVIMAGMNASTWINEKMEQWLGEKNAADMLSQSVQNNITSEMGLALMDVADAIRPYPEVITYLQHVEDDSFLDELVQYKGGEKARDTIVAFLNKYGMRCSGEIDITKTRWSEKPTTIIPMILNNIRDFEAGASKQKFEKGLQEALNKEEELLDRLQHLPKGKQKVEETKRMIRNIRNFIGYREYPKYGMINRYFIYKQALLKEAEQLVQSGVICEVDDIYYLTFEELHEVVRTNKLDYELIQKQKNDYKLYEKLTPPRVMTSDGEIITGKYKRENLPADAIVGLPVSSGVVEGRARVILNMEEANLEEGDILVTAFTDPGWTPLFVSIKGLVTEVGGLMTHGAVIAREYGLPAVVGVENATKRIKDGQRIRVHGTEGYIEML | not soluble
3 | GPGSMENKDVATSWDYNSAEIGEFVPNSCTGTHFPNGIACAPWFQQQVTSQPHLCSSEFASSVESVGGPACRVGSEGSDYCFMNKSVCRNEEEGAEEVEGNEGESNLRWGMHIHPAALRAVQASSREVVQGLIRDKELLCSQFGTMQQNIPLAITWHDTTAPSPNQTLASTFTPLPHKKRSRDLVTLLSGISPDWEAAEEVGGASAAAHVGGLEIQRKRFRVDNPTIGSAAYEVSKAATAASPKPWIKARQKRVREEGDEDVNVNVEWGRGRDGNENSGR | soluble
4 | GPGSMDVYRQAAEIVGIVREGNGTAKALCLRKDMQKKKQTYAVVCETLRHYELLEDVLEVAEFFKYYPQANHEFAMCMAYDVVLGKGVNTHNDSTARAVSHSASYLREAYWQVRKHHVIPPRSSEKLDDEVAADTEGGARGKRRSGDSVSSSPSLQLPRYARVNTLKISVEELVSRLRRSAEVRKRARDAKDNDGDAAASSHPQQQNGDKRATRRASSRPHRPLPEFTQDPVVPHLLVFPPGTDLHAHPAVRSGQLILQDRASCLPAAVLLDAVPVEVIEGDTAGSSKGRKKAKGGTALGKEKGRGNETDAAARRPLEYVVDACAAPGNKTTQLAALGAPHIKIMATERDERRADLLSKRVASLGAADYVNVVSMDFFQLSSDDRAATEGILLDPSCSASGVMTRVDVALQHHHHHHHEQQRKGKARQADRRVSLLQGSRRGSHHEDADRNAAEEGQLDDGDREETANSGAINPAAQGNEFSMKEERVEKLARLQRKLLAHSLLSFDNCRTVVYSTCSVHEEENEEVVRQVLDDERVKARGWRLSNIMPNTWKTRGAEREGEEHPLRFTIRCDPATEATNGFYVARFDRVC | soluble
5 | MGSDKIHHHHHHMKQNVLLQSILIQLNLLKENYSEDTIKNLMDIPKQLTSNTSYKRNVKEVSHVHIAFDDSTAGCLKHMLGQEERLEEMVVAFSEFFSIGPINKLHMNEGQLARKEWLVNNLTSYDCYFEEEYLPRFKETLEVLHSIPNETPITIWKADNAHEHVGLCFVMAQLKDKKNIRVMNTSEASKEILKLEYVIRGTGELPPENLALIQKSFVKLPYLTVENRMQFEHEWDSLSKSTEFLRIWTDNAVRSVQENYFDQFIIECAKSIGADQEFRKAPRVIGEALGLVEQSVGDTFLEYRLKELIKQEVFEFEGSLDEMRFYSVKLRK | not soluble
6 | MSLNHPDYKLNLRSPGTPRGVSSVVGPSAVGASPGDKKSKNKSMRGKKKSIFETYMSKEDVSEGLKRGTLIQGVLRINPKKFHEAFIPSPDGDRDIFIDGVVARNRALNGDLVVVKLLPEDQWKAVKPESNDKEIEATYEADIPEEGCGHHPLQQSRKGWSGPDVIIEAQFDDSDSEDRHGNTSGLVDGVKKLSISTPDRGKEDSSTPVMKDENTPIPQDTRGLSEKSLQKSAKVVYILEKKHSRAATGILKLLADKNSDLFKKYALFSPSDHRVPRIYVPLKDCPQDFMTRPKDFANTLFICRIIDWKEDCNFALGQLAKSLGQAGEIEPETEGILTEYGVDFSDFSSEVLECLPQSLPWTIPPDEVGKRRDLRKDCIFTIDPSTARDLDDALACRRLTDGTFEVGVHIADVSYFVPEGSSLDKVAAERATSVYLVQKVVPMLPRLLCEELCSLNPMTDKLTFSVIWKLTPEGKILEEWFGRTIIRSCTKLSYDHAQSMIENPTEKIPEEELPPISPEHSVEEVHQAVLNLHSIAKQLRRQRFVDGALRLDQLKLAFTLDHETGLPQGCHIYEYRDSNKLVEEFMLLANMAVAHKIFRTFPEQALLRRHPPPQTKMLSDLVEFCDQMGLPMDVSSAGALNKSLTKTFGDDKYSLARKEVLTNMYSRPMQMALYFCSGMLQDQEQFRHYALNVPLYTHFTSPIRRFADVIVHRLLAAALGYSEQPDVEPDTLQKQADHCNDRRMASKRVQELSIGLFFAVLVKESGPLESEAMVMGVLNQAFDVLVLRFGVQKRIYCNALALRSYSFQKVGKKPELTLVWEPDDLEEEPTQQVITIFSLVDVVLQAEATALKYSAILKRPGLEKASEGHHHHHH | soluble
7 | MQFGRHISGQFNVELESIRSQVLTMGGLVEQQLTLAMQALHEDDEKLARRVIADDHKVNAMEVSIDEACTRIIAKRQPTAKDLRLIMAIIKTITDLERIGDSATKMAYIAIERPPAKQHQFQVSLEPLCRQAIAMLHQVLDAFARMDVEAAAEIYKQDDRLDKEYEAVVRQLMTYMMEDPKNIPHILQVIWSARAIERVGDRCQNICEYIIYFVKGKDVRHLGDQGIDDVLKKPSL | not soluble
8 | MTTVTKHKVLLIAGPTAVGKTALSLALAKQLNGEIISGDSMQVYRHLDIGTAKIMPEEQAGIPHHLIDIKNIDQRFTVAEFVSRTTALIIDISARGKLPIIVGGTGFYLQSLLAGYQFGPADNEPDMAYRQAWFDRAAVEGSDVAWMALKQRDPQAATAIAPANLVRVVRALEYVHTTGQLFSEQADTHGDTLDAYTLCLTAERALLYTRINQRVDQMVAAGLEQEARWLFDQGGAMLPAGKGIGYHEWFPYFNGEQTRDESIAKIKQDSRRYAKRQLTWFRNKMSVDWINLLEHPELRASIDQRLASWLSLEHHHHHH | soluble
9 | MIPMFKKKPLIGMVHLKPLPGSYHYNDNFDDIVDFAIKEAKKLEEAGFDAVMIENFGDAPFKKEADKITIASMAVIAKAIKEEVSLPLGINILRNDAIGAYSIAYVVKADFIRVNVLSGVAFTDQGIIEGKAYELAKLKKLLPSKIKVFADVHVKHAYHFIDFESSLLDTVERGLADAVIISGKRTGKEVDIEKLKLAKELVDVPVIVGSGTNYNNLRILWSYADGFIIGTWIKKDGKANNEIDIDRAKKIVNLANKLKMCLEHHHHHH | soluble
10 | MAHHHHHHMSAMSSSDDAPPHQRLASEQSKRDSGAHVGAREHIHDAPTLSARARFLRELERYASDDDDYGGNGGAAVVGAGPMRQPNQANGAPQRRTAFPLVSATRAAAPSVGPSSSSDFFFGGEGGSHDEADDEDVGEDAVWSTASAASLARTLNGVPVTGSTSDIGTTGGSAAPSRVGLQLLHRMHALSTSGDRRSSGHDSAVHSAATRANVMIPQTSPTPTSSADFEVVHAYVPLSTGGFLSTANAAHDTMEGYQVRIGDVLSLRKPLSCTDPPPSSAVASAPASSPTTSTATPSIAALTLTTGSAAAGASATGSLVKDVAQKAMGHFKSAATFTSEEQKYGRKLTPDMVRLLFEVTRVDYQGRSIEALFLDGTRAKVSFFEVRPAGYVERKMYATWKADPSSRPVTIIHSNASSPTTSSAPNGAVMPSSVPSPALPPPPSVTAAAWWVIPRLLVRVTTEAAGDWYGKKCVVKAVQRSENRVRLAEWVEEGRSDGGESGSRSFHNCGKPTAATAETRELIGVDGLETVVPKKGGRAMVVLGSRRGEMCTVRNRVRGADGELTAVEVEISRTKEVMTLQAGELCALAR | soluble
11 | GFVEPHVHPLIASIMLPNEIIAPYDWVLPHTVKKGVQDHDSYLKAVTKSVNENANKDEVYFIWGYHQLWHGELNRDILNNISKDKPIAIIHRSFHEIFLNDAAISKLGIKKSDFANNPQVYWEKGHFYEGGWFALVPMMASELLAPKKYLQGLAMMSELVEKNGITTIGEPGFPSSSFDTEYTLLKQEMDTKPPFDIFLIPNGTQLYGMKGSNENALTFMNSLPEKYNTSNIQFLPKQVKLFADGAIYSQLMQMKDGYIDGHKGEWITPLALFQQQLDFYWDRDFKIHTHANGDLGIQEVMGFVSKAQKRTPRKDHRFTLHHMGYFDDTQAQQVADLQIDASVNPYYLWALADKYAEHGLGKERGENLVRMKSLTDRGVHLSFHSDFSMAPMEPLTLAWTAVNRITSQGSKFSQAQRLDMYTAMKAITIGAARVLSQEHKIGSIKKGKTANFTILAENPFKVEPIALKDIDIITTVFRGTLSKPLH | not soluble
12 | MSLLVLGIESSCDETGVALYDTERGLRAHCLHTQMAMHAEYGGVVPELASRDHIRRLVPLTEGCLAQAGASYGDIDAVAFTQGPGLGGALLAGSSYANALALALDKPVIPVHHLEGHLLSPLLAEEKPDFPFVALLVSGGHTQIMAVRGIGDYALLGESVDDAAGEAFDKTAKLLGLLYPGGAKLSELAESGRFEAFVFPRPMIHSDDLQMSFSGLKTAVLTAVEKVRAENGADDIPEQTRNDICRAFQDAVVDVLAAKVKKALLQTGFRTVVVAGGVGANRKLRETFGNMTVQIPTPKGKPKHPSEKVSVFFPPTAYCTDNGAMIAFAGAMHLGKGREVGAFNVRPRWPLSEIVREGHHHHHH | soluble
13 | IVGGQECKDGECPWQALLINEENEGFCGGTILSEFYILTAAHCLYQAKRFKVRVGDRNTEQEEGGEAVHEVEVVIKHNRFTKETYDFDIAVLRLKTPITFRMNVAPACLPERDWAESTLMTQKTGIVSGFGRTHEKGRQSTRLKMLEVPYVDRNSCKLSSSFIITQNMFCAGYDTKQEDACQGDSGGPHVTRFKDTYFVTGIVSWGEGCARKGKYGIYTKVTAFLKWIDRSMKTRGLPKAKSHAPEVITSSPLK | soluble
